T1: recombinant human C1r2s2 tetramer (human, UniProt P09871 16-688; P00736 18-705)
T1 construct: C1s and C1r co-expressed in HEK293/FreeStyle 293-F and purified from conditioned medium
T1 chain 1: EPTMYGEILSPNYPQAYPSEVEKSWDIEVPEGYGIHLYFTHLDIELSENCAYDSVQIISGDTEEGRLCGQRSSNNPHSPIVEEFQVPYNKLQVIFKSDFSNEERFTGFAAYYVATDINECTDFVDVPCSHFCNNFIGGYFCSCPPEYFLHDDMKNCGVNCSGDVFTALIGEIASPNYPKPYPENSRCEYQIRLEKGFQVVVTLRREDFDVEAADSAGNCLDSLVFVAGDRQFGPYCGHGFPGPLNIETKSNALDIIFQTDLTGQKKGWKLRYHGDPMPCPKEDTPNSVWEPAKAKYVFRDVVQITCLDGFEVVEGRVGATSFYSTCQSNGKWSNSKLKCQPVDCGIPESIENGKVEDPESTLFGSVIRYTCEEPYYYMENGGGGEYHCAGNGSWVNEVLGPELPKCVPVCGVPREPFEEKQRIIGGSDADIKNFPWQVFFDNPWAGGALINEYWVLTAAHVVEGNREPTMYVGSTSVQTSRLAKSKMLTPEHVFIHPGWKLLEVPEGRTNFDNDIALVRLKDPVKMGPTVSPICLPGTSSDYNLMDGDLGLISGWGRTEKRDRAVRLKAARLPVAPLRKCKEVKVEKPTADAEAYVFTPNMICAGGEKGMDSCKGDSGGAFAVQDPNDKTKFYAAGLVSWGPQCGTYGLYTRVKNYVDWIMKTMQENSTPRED
T1 chain 2: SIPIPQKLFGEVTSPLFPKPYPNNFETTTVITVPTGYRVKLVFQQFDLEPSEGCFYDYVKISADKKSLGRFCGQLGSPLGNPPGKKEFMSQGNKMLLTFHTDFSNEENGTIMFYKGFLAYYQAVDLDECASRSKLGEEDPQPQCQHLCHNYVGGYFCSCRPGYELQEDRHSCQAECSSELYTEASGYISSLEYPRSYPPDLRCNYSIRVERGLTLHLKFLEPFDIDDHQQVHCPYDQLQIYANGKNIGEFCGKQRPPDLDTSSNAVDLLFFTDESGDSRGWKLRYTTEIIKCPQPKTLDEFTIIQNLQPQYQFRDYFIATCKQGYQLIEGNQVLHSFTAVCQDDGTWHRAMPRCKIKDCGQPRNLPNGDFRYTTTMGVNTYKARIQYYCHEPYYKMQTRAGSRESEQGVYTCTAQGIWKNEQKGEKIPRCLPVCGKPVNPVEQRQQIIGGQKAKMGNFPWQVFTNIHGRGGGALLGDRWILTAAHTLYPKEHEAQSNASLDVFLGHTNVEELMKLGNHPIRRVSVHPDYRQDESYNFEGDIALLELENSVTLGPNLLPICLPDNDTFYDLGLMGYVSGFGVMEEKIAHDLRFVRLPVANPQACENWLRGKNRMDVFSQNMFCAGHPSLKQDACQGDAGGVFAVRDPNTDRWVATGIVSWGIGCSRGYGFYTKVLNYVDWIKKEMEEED


Target: T1, recombinant human C1r2s2 tetramer
Assay: SPR (BIACORE), antibody captured by ProL, human C1r2s2 injected at 100 nM, pH 7.4, 37 C
Method: Analysis of interaction between antibody variants and the human C1r2s2 prepared as mentioned above was carried out at pH7.4, at 37 degrees C. using BIACORE® T200 instrument (GE Healthcare) or BIACORE® 4000 (GE Healthcare). ProL (BioVision) was immobilized onto a CM4 sensorchip using amine coupling kit (GE Healthcare) according to the recommended settings by GE Healthcare. Antibodies and analytes were diluted into the respective running buffers, ACES pH7.4 (20 mM ACES (N-(2-Acetamido)-2-aminoethanesulfonic acid), 150 mM NaCl, 1.2 mM CaCl2, 1 mg/ml bovine serum albumin (BSA), 1 mg/ml CMD (CM-Dextran sodium salt), 0.05% Tween® 20 (polysorbate 20), 0.005 w/v % NaN3). Each antibody was captured onto the sensor surface by ProL. Antibody capture levels were aimed at 200 resonance units (RU). Then, recombinant human C1r2s2 was injected at concentrations of 25 and 100 nM followed by dissociation at pH7.4. The surface was regenerated using 10 mM Glycine-HCl, pH1.5.

| Binder | binding result |
| --- | --- |
| AL0459 (antibody, human IgG1, kappa, V domains shown, COS0637temp with VL C94L (Kabat), already in the VL entry) VH: QVQLVESGGGVVQPGRSLRLSCAASGFTFSAYAMNWIRQPPGKGLEWIGLIYGSGSTFYASWAKGRVTISVDTSKNQFSLKLSSVTAADTAVYYCARGRSVNYNSDFHLWGQGTLVTVSS VL: DIQMTQSPSSLSASVGDRVTITCQASQSLHDKKNLAWYQQKPGQPPKLLIYGASTLESGVPSRFSGSGSGTDFTLTISSLQPEDFATYYCQGEFSLSSADCNTFGQGTKVEIKR | no binding (tested: 100 nM) |
| AL0460 (antibody, human IgG1, kappa, V domains shown, COS0637temp with VL C94M (Kabat), already in the VL entry) VH: QVQLVESGGGVVQPGRSLRLSCAASGFTFSAYAMNWIRQPPGKGLEWIGLIYGSGSTFYASWAKGRVTISVDTSKNQFSLKLSSVTAADTAVYYCARGRSVNYNSDFHLWGQGTLVTVSS VL: DIQMTQSPSSLSASVGDRVTITCQASQSLHDKKNLAWYQQKPGQPPKLLIYGASTLESGVPSRFSGSGSGTDFTLTISSLQPEDFATYYCQGEFSMSSADCNTFGQGTKVEIKR | no binding (tested: 100 nM) |
| AL0461 (antibody, human IgG1, kappa, V domains shown, COS0637temp with VL C94N (Kabat), already in the VL entry) VH: QVQLVESGGGVVQPGRSLRLSCAASGFTFSAYAMNWIRQPPGKGLEWIGLIYGSGSTFYASWAKGRVTISVDTSKNQFSLKLSSVTAADTAVYYCARGRSVNYNSDFHLWGQGTLVTVSS VL: DIQMTQSPSSLSASVGDRVTITCQASQSLHDKKNLAWYQQKPGQPPKLLIYGASTLESGVPSRFSGSGSGTDFTLTISSLQPEDFATYYCQGEFSNSSADCNTFGQGTKVEIKR | no binding (tested: 100 nM) |
| AL0462 (antibody, human IgG1, kappa, V domains shown, COS0637temp with VL C94P (Kabat), already in the VL entry) VH: QVQLVESGGGVVQPGRSLRLSCAASGFTFSAYAMNWIRQPPGKGLEWIGLIYGSGSTFYASWAKGRVTISVDTSKNQFSLKLSSVTAADTAVYYCARGRSVNYNSDFHLWGQGTLVTVSS VL: DIQMTQSPSSLSASVGDRVTITCQASQSLHDKKNLAWYQQKPGQPPKLLIYGASTLESGVPSRFSGSGSGTDFTLTISSLQPEDFATYYCQGEFSPSSADCNTFGQGTKVEIKR | no binding (tested: 100 nM) |
| AL0463 (antibody, human IgG1, kappa, V domains shown, COS0637temp with VL C94Q (Kabat), already in the VL entry) VH: QVQLVESGGGVVQPGRSLRLSCAASGFTFSAYAMNWIRQPPGKGLEWIGLIYGSGSTFYASWAKGRVTISVDTSKNQFSLKLSSVTAADTAVYYCARGRSVNYNSDFHLWGQGTLVTVSS VL: DIQMTQSPSSLSASVGDRVTITCQASQSLHDKKNLAWYQQKPGQPPKLLIYGASTLESGVPSRFSGSGSGTDFTLTISSLQPEDFATYYCQGEFSQSSADCNTFGQGTKVEIKR | no binding (tested: 100 nM) |
| AL0464 (antibody, human IgG1, kappa, V domains shown, COS0637temp with VL C94R (Kabat), already in the VL entry) VH: QVQLVESGGGVVQPGRSLRLSCAASGFTFSAYAMNWIRQPPGKGLEWIGLIYGSGSTFYASWAKGRVTISVDTSKNQFSLKLSSVTAADTAVYYCARGRSVNYNSDFHLWGQGTLVTVSS VL: DIQMTQSPSSLSASVGDRVTITCQASQSLHDKKNLAWYQQKPGQPPKLLIYGASTLESGVPSRFSGSGSGTDFTLTISSLQPEDFATYYCQGEFSRSSADCNTFGQGTKVEIKR | no binding (tested: 100 nM) |
| AL0465 (antibody, human IgG1, kappa, V domains shown, COS0637temp with VL C94S (Kabat), already in the VL entry) VH: QVQLVESGGGVVQPGRSLRLSCAASGFTFSAYAMNWIRQPPGKGLEWIGLIYGSGSTFYASWAKGRVTISVDTSKNQFSLKLSSVTAADTAVYYCARGRSVNYNSDFHLWGQGTLVTVSS VL: DIQMTQSPSSLSASVGDRVTITCQASQSLHDKKNLAWYQQKPGQPPKLLIYGASTLESGVPSRFSGSGSGTDFTLTISSLQPEDFATYYCQGEFSSSSADCNTFGQGTKVEIKR | no binding (tested: 100 nM) |
| AL0466 (antibody, human IgG1, kappa, V domains shown, COS0637temp with VL C94T (Kabat), already in the VL entry) VH: QVQLVESGGGVVQPGRSLRLSCAASGFTFSAYAMNWIRQPPGKGLEWIGLIYGSGSTFYASWAKGRVTISVDTSKNQFSLKLSSVTAADTAVYYCARGRSVNYNSDFHLWGQGTLVTVSS VL: DIQMTQSPSSLSASVGDRVTITCQASQSLHDKKNLAWYQQKPGQPPKLLIYGASTLESGVPSRFSGSGSGTDFTLTISSLQPEDFATYYCQGEFSTSSADCNTFGQGTKVEIKR | no binding (tested: 100 nM) |
| AL0467 (antibody, human IgG1, kappa, V domains shown, COS0637temp with VL C94V (Kabat), already in the VL entry) VH: QVQLVESGGGVVQPGRSLRLSCAASGFTFSAYAMNWIRQPPGKGLEWIGLIYGSGSTFYASWAKGRVTISVDTSKNQFSLKLSSVTAADTAVYYCARGRSVNYNSDFHLWGQGTLVTVSS VL: DIQMTQSPSSLSASVGDRVTITCQASQSLHDKKNLAWYQQKPGQPPKLLIYGASTLESGVPSRFSGSGSGTDFTLTISSLQPEDFATYYCQGEFSVSSADCNTFGQGTKVEIKR | no binding (tested: 100 nM) |
| AL0468 (antibody, human IgG1, kappa, V domains shown, COS0637temp with VL C94W (Kabat), already in the VL entry) VH: QVQLVESGGGVVQPGRSLRLSCAASGFTFSAYAMNWIRQPPGKGLEWIGLIYGSGSTFYASWAKGRVTISVDTSKNQFSLKLSSVTAADTAVYYCARGRSVNYNSDFHLWGQGTLVTVSS VL: DIQMTQSPSSLSASVGDRVTITCQASQSLHDKKNLAWYQQKPGQPPKLLIYGASTLESGVPSRFSGSGSGTDFTLTISSLQPEDFATYYCQGEFSWSSADCNTFGQGTKVEIKR | no binding (tested: 100 nM) |
| AL0469 (antibody, human IgG1, kappa, V domains shown, COS0637temp with VL C94Y (Kabat), already in the VL entry) VH: QVQLVESGGGVVQPGRSLRLSCAASGFTFSAYAMNWIRQPPGKGLEWIGLIYGSGSTFYASWAKGRVTISVDTSKNQFSLKLSSVTAADTAVYYCARGRSVNYNSDFHLWGQGTLVTVSS VL: DIQMTQSPSSLSASVGDRVTITCQASQSLHDKKNLAWYQQKPGQPPKLLIYGASTLESGVPSRFSGSGSGTDFTLTISSLQPEDFATYYCQGEFSYSSADCNTFGQGTKVEIKR | no binding (tested: 100 nM) |
| AL0542 (antibody, human IgG1, kappa, V domains shown, COS0637temp with VL C95dA (Kabat), already in the VL entry) VH: QVQLVESGGGVVQPGRSLRLSCAASGFTFSAYAMNWIRQPPGKGLEWIGLIYGSGSTFYASWAKGRVTISVDTSKNQFSLKLSSVTAADTAVYYCARGRSVNYNSDFHLWGQGTLVTVSS VL: DIQMTQSPSSLSASVGDRVTITCQASQSLHDKKNLAWYQQKPGQPPKLLIYGASTLESGVPSRFSGSGSGTDFTLTISSLQPEDFATYYCQGEFSCSSADANTFGQGTKVEIKR | no binding (tested: 100 nM) |
| AL0543 (antibody, human IgG1, kappa, V domains shown, COS0637temp with VL C95dD (Kabat), already in the VL entry) VH: QVQLVESGGGVVQPGRSLRLSCAASGFTFSAYAMNWIRQPPGKGLEWIGLIYGSGSTFYASWAKGRVTISVDTSKNQFSLKLSSVTAADTAVYYCARGRSVNYNSDFHLWGQGTLVTVSS VL: DIQMTQSPSSLSASVGDRVTITCQASQSLHDKKNLAWYQQKPGQPPKLLIYGASTLESGVPSRFSGSGSGTDFTLTISSLQPEDFATYYCQGEFSCSSADDNTFGQGTKVEIKR | no binding (tested: 100 nM) |
| AL0544 (antibody, human IgG1, kappa, V domains shown, COS0637temp with VL C95dE (Kabat), already in the VL entry) VH: QVQLVESGGGVVQPGRSLRLSCAASGFTFSAYAMNWIRQPPGKGLEWIGLIYGSGSTFYASWAKGRVTISVDTSKNQFSLKLSSVTAADTAVYYCARGRSVNYNSDFHLWGQGTLVTVSS VL: DIQMTQSPSSLSASVGDRVTITCQASQSLHDKKNLAWYQQKPGQPPKLLIYGASTLESGVPSRFSGSGSGTDFTLTISSLQPEDFATYYCQGEFSCSSADENTFGQGTKVEIKR | no binding (tested: 100 nM) |

Source: patent US20240092889A1 (Chugai, published 2024)
